Article PMC11931385, “Structural and functional analysis of cancer-associated missense variants in the retinoblastoma protein pocket domain” (The Journal of Biological Chemistry, 2025)
No end group written: not given here. TMR = tetramethyl rhodamine dye

How the values were obtained:
Assay in all cases: fluorescence polarisation; 25 °C; unlabeled Rb^P titrated against 1.5 nM TMR-E2F1^TD or 7.5 nM TMR-E7^LxCxE; 25 mM Tris pH 8.0, 200 mM NaCl, 1 mM DTT, 0.1% Tween-20; 2 min incubation; quadratic fit; apparent Kd for the variants, Kd for WT
Conditions in all cases: both partners purified
Rb^P R656Q = target: T1, Rb^P R656Q (human, UniProt P06400 380-788, R656Q)
T1 construct: also called variant 48
T1 sequence (looked up): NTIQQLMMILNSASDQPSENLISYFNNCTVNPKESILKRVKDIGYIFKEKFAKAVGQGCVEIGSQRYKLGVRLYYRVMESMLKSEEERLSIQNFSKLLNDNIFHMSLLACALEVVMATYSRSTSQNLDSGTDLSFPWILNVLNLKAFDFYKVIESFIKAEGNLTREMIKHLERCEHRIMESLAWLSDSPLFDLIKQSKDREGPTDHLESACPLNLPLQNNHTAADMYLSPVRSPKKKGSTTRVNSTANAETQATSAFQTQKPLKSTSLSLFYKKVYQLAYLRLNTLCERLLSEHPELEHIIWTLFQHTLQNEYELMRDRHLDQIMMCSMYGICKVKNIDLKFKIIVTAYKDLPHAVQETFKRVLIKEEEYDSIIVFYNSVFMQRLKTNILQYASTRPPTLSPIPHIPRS

Rb^P Q444L = target: T2, Rb^P Q444L (human, UniProt P06400 380-788, Q444L)
T2 construct: also called variant 3
T2 sequence (looked up): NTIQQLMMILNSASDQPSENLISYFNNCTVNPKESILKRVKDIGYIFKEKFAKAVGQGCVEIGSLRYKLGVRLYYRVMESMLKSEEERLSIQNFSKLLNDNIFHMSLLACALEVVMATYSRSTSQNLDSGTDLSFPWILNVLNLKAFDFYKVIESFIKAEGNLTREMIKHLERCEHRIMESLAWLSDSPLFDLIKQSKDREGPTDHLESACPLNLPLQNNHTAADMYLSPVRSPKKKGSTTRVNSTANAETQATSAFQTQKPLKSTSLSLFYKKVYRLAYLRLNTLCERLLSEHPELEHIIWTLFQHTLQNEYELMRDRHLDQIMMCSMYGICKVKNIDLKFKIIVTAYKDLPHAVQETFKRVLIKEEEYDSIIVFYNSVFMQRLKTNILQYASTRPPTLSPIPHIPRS

Rb^P E440K = target: T3, Rb^P E440K (human, UniProt P06400 380-788, E440K)
T3 construct: also called variant 1
T3 sequence (looked up): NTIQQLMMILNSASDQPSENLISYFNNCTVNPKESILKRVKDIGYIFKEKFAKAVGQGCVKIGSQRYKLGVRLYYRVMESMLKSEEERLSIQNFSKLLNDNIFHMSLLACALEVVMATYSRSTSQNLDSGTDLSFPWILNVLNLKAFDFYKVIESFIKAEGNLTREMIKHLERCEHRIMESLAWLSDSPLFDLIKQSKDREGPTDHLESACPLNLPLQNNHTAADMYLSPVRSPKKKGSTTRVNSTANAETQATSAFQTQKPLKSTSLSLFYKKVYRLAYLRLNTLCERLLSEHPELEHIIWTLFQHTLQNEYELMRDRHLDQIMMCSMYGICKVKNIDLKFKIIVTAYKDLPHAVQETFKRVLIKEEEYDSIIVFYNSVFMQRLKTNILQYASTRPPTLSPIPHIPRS

Rb^P E492Q = target: T4, Rb^P E492Q (human, UniProt P06400 380-788, E492Q)
T4 construct: also called variant 18
T4 sequence (looked up): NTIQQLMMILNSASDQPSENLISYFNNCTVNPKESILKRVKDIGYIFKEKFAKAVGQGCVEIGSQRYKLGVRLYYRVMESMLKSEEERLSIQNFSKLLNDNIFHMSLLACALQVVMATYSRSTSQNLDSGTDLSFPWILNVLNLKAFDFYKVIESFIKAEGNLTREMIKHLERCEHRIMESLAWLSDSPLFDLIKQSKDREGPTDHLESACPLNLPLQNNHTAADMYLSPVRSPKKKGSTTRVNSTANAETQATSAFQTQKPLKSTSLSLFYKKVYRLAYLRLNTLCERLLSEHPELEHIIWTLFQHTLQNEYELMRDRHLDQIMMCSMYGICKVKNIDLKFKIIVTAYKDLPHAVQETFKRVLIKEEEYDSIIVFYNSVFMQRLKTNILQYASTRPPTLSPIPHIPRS

Rb^P H686Y = target: T5, Rb^P H686Y (human, UniProt P06400 380-788, H686Y)
T5 construct: also called variant 58
T5 sequence (looked up): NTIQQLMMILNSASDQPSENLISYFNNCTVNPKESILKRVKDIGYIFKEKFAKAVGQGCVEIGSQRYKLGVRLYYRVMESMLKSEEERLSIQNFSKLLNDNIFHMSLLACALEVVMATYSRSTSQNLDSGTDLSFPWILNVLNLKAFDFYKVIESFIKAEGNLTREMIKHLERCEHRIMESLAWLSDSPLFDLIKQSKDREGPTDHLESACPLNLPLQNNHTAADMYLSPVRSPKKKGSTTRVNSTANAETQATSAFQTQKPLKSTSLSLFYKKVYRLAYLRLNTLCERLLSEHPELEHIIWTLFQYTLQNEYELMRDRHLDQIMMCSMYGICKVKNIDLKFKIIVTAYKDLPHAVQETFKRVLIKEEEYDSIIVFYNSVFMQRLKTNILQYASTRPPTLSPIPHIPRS

B1: TMR-E2F1^TD, peptide of the E2F1 transactivation domain (peptide)
peptide: {TMR}-GEGIRDLFDCDFGDLTPLD
notes: also called E2F^TD; source: synthetic peptide, bought: GenScript
Binder B1 has a Kd (Rb^P R656Q) of 183 nM, a Kd (Rb^P Q444L) of 14 nM and a Kd (Rb^P E440K) of 12 nM. For the same binder, the Kd (Rb^P E492Q) was 22 nM and the Kd (Rb^P H686Y) was 20 nM.

B2: TMR-E7^LxCxE, LxCxE peptide of the E7 oncoprotein from HPV (peptide)
peptide: DLYCYEQLN
modifications: also: TMR label, position not given here
notes: source: synthetic peptide, bought: GenScript
With B2 the Kd (Rb^P R656Q) was 6 nM, the Kd (Rb^P Q444L) was 4 nM and the Kd (Rb^P E440K) was 5 nM. The Kd (Rb^P E492Q) was 14 nM and the Kd (Rb^P H686Y) was 5 nM.
